In IntAct's records for PubMed 25517094:

B1: "D(3) dopamine receptor" (Homo sapiens), P35462-1 (parent)
chain: MASLSQLSGHLNYTCGAENSTGASQARPHAYYALSYCALILAIVFGNGLVCMAVLKERALQTTTNYLVVSLAVADLLVATLVMPWVVYLEVTGGVWNFSRICCDVFVTLDVMMCTASILNLCAISIDRYTAVVMPVHYQHGTGQSSCRRVALMITAVWVLAFAVSCPLLFGFNTTGDPTVCSISNPDFVIYSSVVSFYLPFGVTVLVYARIYVVLKQRRRKRILTRQNSQCNSVRPGFPQQTLSPDPAHLELKRYYSICQDTALGGPGFQERGGELKREEKTRNSLSPTIAPKLSLEVRKLSNGRLSTSLKLGPLQPRGVPLREKKATQMVAIVLGAFIVCWLPFFLTHVLNTHCQTCHVSPELYSATTWLGYVNSALNPVIYTTFNIEFRKAFLKILSC
B2: Muscarinic acetylcholine receptor M4 (Homo sapiens), P08173 (parent)
chain: MANFTPVNGSSGNQSVRLVTSSSHNRYETVEMVFIATVTGSLSLVTVVGNILVMLSIKVNRQLQTVNNYFLFSLACADLIIGAFSMNLYTVYIIKGYWPLGAVVCDLWLALDYVVSNASVMNLLIISFDRYFCVTKPLTYPARRTTKMAGLMIAAAWVLSFVLWAPAILFWQFVVGKRTVPDNQCFIQFLSNPAVTFGTAIAAFYLPVVIMTVLYIHISLASRSRVHKHRPEGPKEKKAKTLAFLKSPLMKQSVKKPPPGEAAREELRNGKLEEAPPPALPPPPRPVADKDTSNESSSGSATQNTKERPATELSTTEATTPAMPAPPLQPRALNPASRWSKIQIVTKQTGNECVTAIEIVPATPAGMRPAANVARKFASIARNQVRKKRQMAARERKVTRTIFAILLAFILTWTPYNVMVLVNTFCQSCIPDTVWSIGYWLCYVNSTINPACYALCNATFKKTFRHLLLCQYRNIGTAR
B3: "D(4) dopamine receptor" (Mus musculus), P51436 (parent)
chain: MGNSSATEDGGLLAGRGPESLGTGAGLGGAGAAALVGGVLLIGLVLAGNSLVCVSVASERTLQTPTNYFIVSLAAADLLLAVLVLPLFVYSEVQGGVWLLSPRLCDTLMAMDVMLCTASIFNLCAISVDRFVAVTVPLRYNQQGQCQLLLIAATWLLSAAVASPVVCGLNDVPGRDPAVCCLENRDYVVYSSVCSFFLPCPLMLLLYWATFRGLRRWEAARHTKLHSRAPRRPSGPGPPVSDPTQGPFFPDCPPPLPSLRTSPSDSSRPESELSQRPCSPGCLLADAALPQPPEPSSRRRRGAKITGRERKAMRVLPVVVGAFLVCWTPFFVVHITRALCPACFVSPRLVSAVTWLGYVNSALNPIIYTIFNAEFRSVFRKTLRLRC

Variants of: B1
Settings: with SH3GL1, Q99961-1
Target sequence in this assay (Q99961 whole entry): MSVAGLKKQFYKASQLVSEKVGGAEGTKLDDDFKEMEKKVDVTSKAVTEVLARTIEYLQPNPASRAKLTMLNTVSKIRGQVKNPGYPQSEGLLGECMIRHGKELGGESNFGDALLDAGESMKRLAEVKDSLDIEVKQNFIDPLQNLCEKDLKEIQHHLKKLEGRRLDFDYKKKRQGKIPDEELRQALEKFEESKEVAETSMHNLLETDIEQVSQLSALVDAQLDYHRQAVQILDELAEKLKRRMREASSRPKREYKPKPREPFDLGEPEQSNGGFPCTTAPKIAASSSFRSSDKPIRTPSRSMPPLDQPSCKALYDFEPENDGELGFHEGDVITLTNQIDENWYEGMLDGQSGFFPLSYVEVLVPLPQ

Row | effect of a mutation on the interaction | Variant
1 | decreasing interaction strength | R318E
2 | decreasing interaction strength | K293E

Variants of: B2
Settings: with SH3GL1, Q99961-1
Target sequence in this assay (Q99961 whole entry): as above

Row | effect of a mutation on the interaction | Variant
3 | decreasing interaction strength | R230E
4 | decreasing interaction strength | K255E;K256E
5 | decreasing interaction strength | P330E

Variants of: B3
Settings: with SH3GL1, Q99961-1
Target sequence in this assay (Q99961 whole entry): as above

Row | effect of a mutation on the interaction | Variant
6 | disrupting interaction strength | R231D;R232E
7 | decreasing interaction strength | P230A;P233A
